Results taken from paper PMC9352680, “A comprehensive thermodynamic model for RNA binding by the Saccharomyces cerevisiae Pumilio protein PUF4”.

Target: T1, PUF4 RNA-binding domain (Saccharomyces cerevisiae, UniProt P25339 537-888)
T1 sequence: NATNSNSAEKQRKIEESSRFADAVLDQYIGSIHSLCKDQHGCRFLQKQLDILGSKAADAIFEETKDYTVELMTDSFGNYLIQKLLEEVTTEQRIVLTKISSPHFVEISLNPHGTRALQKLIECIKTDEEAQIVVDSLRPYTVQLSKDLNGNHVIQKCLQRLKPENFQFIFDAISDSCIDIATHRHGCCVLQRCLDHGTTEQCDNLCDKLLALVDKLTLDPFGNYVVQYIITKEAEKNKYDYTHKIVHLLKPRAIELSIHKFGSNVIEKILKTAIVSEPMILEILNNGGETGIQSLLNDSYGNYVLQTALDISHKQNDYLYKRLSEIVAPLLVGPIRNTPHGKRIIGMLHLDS
Test: Mg; RNA-MaP; 20 mM Na-HEPES pH 7.4, 30 mM KOAc, 0.75 mM MgCl2, 0.1% Tween-20, 5% glycerol, 0.1 mg/mL BSA, 2 mM DTT; 25 C; 0.0125-409.6 nM protein
Settings: tags: N-His6-TEV cleaved; C-SNAP kept, Cy3B-labelled; label: tethered on chip by stalled RNA polymerase

B1: Ie_S2_P5E.1_K5.1_C5.1_H5.1_A5.1_[+6TCTC]_F5.1_T5.1 (ssRNA)
RNA: UUUGAUUAAUAUGAUAUCGUUCUUUCUUGUAUUUCUCAUUAUUCUUUCUCGAUAUCAUAUUAAUCUUU
- Kd: 75.2 nM

B2: Ie_S2_P5E.1_K5.1_C5.1_H5.1_A5.1_[+7TTCC]_F5.1_T5.1 (ssRNA)
RNA: UUUGAUUAAUAUGAUAUCGUUCUUUCUUGUAUUAUUCCUUAUUCUUUCUCGAUAUCAUAUUAAUCUUU
- Kd: 10.1 nM

B3: Ie_S2_P5E.1_K5.1_C5.1_H5.1_A5.1_[+6CCTC]_F5.1_T5.1 (ssRNA)
RNA: UUUGAUUAAUAUGAUAUCGUUCUUUCUUGUAUUCCUCAUUAUUCUUUCUCGAUAUCAUAUUAAUCUUU
- Kd: 99.6 nM

B4: Ie_S2_P5E.1_K5.1_C5.1_H5.1_A5.1_[+7CCTC]_F5.1_T5.1 (ssRNA)
RNA: UUUGAUUAAUAUGAUAUCGUUCUUUCUUGUAUUACCUCUUAUUCUUUCUCGAUAUCAUAUUAAUCUUU
- Kd: 49 nM

B5: Ie_S2_P5E.1_K5.1_C5.1_H5.1_A5.1_[+6CCCT]_F5.1_T5.1 (ssRNA)
RNA: UUUGAUUAAUAUGAUAUCGUUCUUUCUUGUAUUCCCUAUUAUUCUUUCUCGAUAUCAUAUUAAUCUUU
- Kd: 15.6 nM

B6: Ie_S2_P5E.1_K5.1_C5.1_H5.1_A5.1_[+7CTCT]_F5.1_T5.1 (ssRNA)
RNA: UUUGAUUAAUAUGAUAUCGUUCUUUCUUGUAUUACUCUUUAUUCUUUCUCGAUAUCAUAUUAAUCUUU
- Kd: 51.9 nM

B7: Ie_S2_P5E.1_K5.1_C5.1_H5.1_A5.1_[+7TCTC]_F5.1_T5.1 (ssRNA)
RNA: UUUGAUUAAUAUGAUAUCGUUCUUUCUUGUAUUAUCUCUUAUUCUUUCUCGAUAUCAUAUUAAUCUUU
- Kd: 18.3 nM

B8: Ie_S2_P5E.1_K5.1_C5.1_H5.1_A5.1_F5.1_[+9T]_T5.1 (ssRNA)
RNA: UUUGAUUAAUAUGAUAUCGUUCUUUCUUGUAUUAUUUAUUCUUUCUCGAUAUCAUAUUAAUCUUU
- Kd: 5.9 nM

B9: Ie_S2_P5E.1_K5.1_C5.1_H5.1_[+3CCCTT]_A5.1_F5.1_T5.1 (ssRNA)
RNA: UUUGAUUAAUAUGAUAUCGUUCUUUCUUGUCCCUUAUUAUUAUUCUUUCUCGAUAUCAUAUUAAUCUUU
- Kd: 54.6 nM

B10: Ie_S2_P5E.1_K5.1_C5.1_H5.1_A5.1_[+5CTCTC]_F5.1_T5.1 (ssRNA)
RNA: UUUGAUUAAUAUGAUAUCGUUCUUUCUUGUAUCUCUCUAUUAUUCUUUCUCGAUAUCAUAUUAAUCUUU
- Kd: 13.3 nM

B11: Ie_S2_P5E.1_K5.1_C5.1_H5.1_A5.1_[+5TTCCT]_F5.1_T5.1 (ssRNA)
RNA: UUUGAUUAAUAUGAUAUCGUUCUUUCUUGUAUUUCCUUAUUAUUCUUUCUCGAUAUCAUAUUAAUCUUU
- Kd: 13.2 nM

B12: Ie_S2_P5E.1_K5.1_C5.1_H5.1_A5.1_[+5CCTCT]_F5.1_T5.1 (ssRNA)
RNA: UUUGAUUAAUAUGAUAUCGUUCUUUCUUGUAUCCUCUUAUUAUUCUUUCUCGAUAUCAUAUUAAUCUUU
- Kd: 12.8 nM

B13: Ie_S2_P5E.1_K5.1_C5.1_H5.1_A5.1_[+5TCTCT]_F5.1_T5.1 (ssRNA)
RNA: UUUGAUUAAUAUGAUAUCGUUCUUUCUUGUAUUCUCUUAUUAUUCUUUCUCGAUAUCAUAUUAAUCUUU
- Kd: 9.67 nM

B14: Ie_S2_P5E.1_K5.1_C5.1_H5.1_A5.1_[+6TTCCT]_F5.1_T5.1 (ssRNA)
RNA: UUUGAUUAAUAUGAUAUCGUUCUUUCUUGUAUUUUCCUAUUAUUCUUUCUCGAUAUCAUAUUAAUCUUU
- Kd: 12.3 nM

B15: Ie_S2_P5E.1_K5.1_C5.1_H5.1_[+4TTCCT]_A5.1_F5.1_T5.1 (ssRNA)
RNA: UUUGAUUAAUAUGAUAUCGUUCUUUCUUGUAUUCCUUUAUUAUUCUUUCUCGAUAUCAUAUUAAUCUUU
- Kd: 18.1 nM

B16: Ie_S2_P5E.1_K5.1_C5.1_H5.1_[+4CCCTT]_A5.1_F5.1_T5.1 (ssRNA)
RNA: UUUGAUUAAUAUGAUAUCGUUCUUUCUUGUACCCUUUUAUUAUUCUUUCUCGAUAUCAUAUUAAUCUUU
- Kd: 6.38 nM

B17: Ie_S2_P5E.1_K5.1_C5.1_H5.1_A5.1_[+6TCTCT]_F5.1_T5.1 (ssRNA)
RNA: UUUGAUUAAUAUGAUAUCGUUCUUUCUUGUAUUUCUCUAUUAUUCUUUCUCGAUAUCAUAUUAAUCUUU
- Kd: 12.9 nM

B18: Ie_S2_P5E.1_K5.1_C5.1_H5.1_A5.1_[+6CCTCT]_F5.1_T5.1 (ssRNA)
RNA: UUUGAUUAAUAUGAUAUCGUUCUUUCUUGUAUUCCUCUAUUAUUCUUUCUCGAUAUCAUAUUAAUCUUU
- Kd: 20.8 nM

B19: Ie_S2_P5E.1_K5.1_C5.1_H5.1_[+4TCTCT]_A5.1_F5.1_T5.1 (ssRNA)
RNA: UUUGAUUAAUAUGAUAUCGUUCUUUCUUGUAUCUCUUUAUUAUUCUUUCUCGAUAUCAUAUUAAUCUUU
- Kd: 10.5 nM

B20: Ie_S2_P5E.1_K5.1_C5.1_H5.1_A5.1_[+5CCCTT]_F5.1_T5.1 (ssRNA)
RNA: UUUGAUUAAUAUGAUAUCGUUCUUUCUUGUAUCCCUUUAUUAUUCUUUCUCGAUAUCAUAUUAAUCUUU
- Kd: 16.3 nM

B21: Ie_S2_P5E.1_K5.1_C5.1_H5.1_[+4CTCTC]_A5.1_F5.1_T5.1 (ssRNA)
RNA: UUUGAUUAAUAUGAUAUCGUUCUUUCUUGUACUCUCUUAUUAUUCUUUCUCGAUAUCAUAUUAAUCUUU
- Kd: 7.93 nM

B22: Ie_S2_P5E.1_K5.1_C5.1_H5.1_[+4TCC]_A5.1_F5.1_T5.1 (ssRNA)
RNA: UUUGAUUAAUAUGAUAUCGUUCUUUCUUGUAUCCUUAUUAUUCUUUCUCGAUAUCAUAUUAAUCUUU
- Kd: 2.6 nM

B23: Ie_S2_P5E.1_K5.1_C5.1_H5.1_A5.1_[+7CTC]_F5.1_T5.1 (ssRNA)
RNA: UUUGAUUAAUAUGAUAUCGUUCUUUCUUGUAUUACUCUUAUUCUUUCUCGAUAUCAUAUUAAUCUUU
- Kd: 42.2 nM

B24: Ie_S2_P5E.1_K5.1_C5.1_H5.1_A5.1_F5.1_[+9CTT]_T5.1 (ssRNA)
RNA: UUUGAUUAAUAUGAUAUCGUUCUUUCUUGUAUUAUUCUUAUUCUUUCUCGAUAUCAUAUUAAUCUUU
- Kd: 10.5 nM

B25: Ie_S2_P5E.1_K5.1_C5.1_H5.1_A5.1_[+5TTT]_F5.1_T5.1 (ssRNA)
RNA: UUUGAUUAAUAUGAUAUCGUUCUUUCUUGUAUUUUUAUUAUUCUUUCUCGAUAUCAUAUUAAUCUUU
- Kd: 1.6 nM

B26: Ie_S2_P5E.1_K5.1_C5.1_H5.1_A5.1_F5.1_[+8CCT]_T5.1 (ssRNA)
RNA: UUUGAUUAAUAUGAUAUCGUUCUUUCUUGUAUUAUCCUUAUUCUUUCUCGAUAUCAUAUUAAUCUUU
- Kd: 16.6 nM

B27: Ie_S2_P5E.1_K5.1_C5.1_H5.1_A5.1_[+7TCT]_F5.1_T5.1 (ssRNA)
RNA: UUUGAUUAAUAUGAUAUCGUUCUUUCUUGUAUUAUCUUUAUUCUUUCUCGAUAUCAUAUUAAUCUUU
- Kd: 15.8 nM

B28: Ie_S2_P5E.1_K5.1_C5.1_H5.1_A5.1_[+6TTC]_F5.1_T5.1 (ssRNA)
RNA: UUUGAUUAAUAUGAUAUCGUUCUUUCUUGUAUUUUCAUUAUUCUUUCUCGAUAUCAUAUUAAUCUUU
- Kd: 28.6 nM

B29: Ie_S2_P5E.1_K5.1_C5.1_H5.1_A5.1_F5.1_[+8TTT]_T5.1 (ssRNA)
RNA: UUUGAUUAAUAUGAUAUCGUUCUUUCUUGUAUUAUUUUUAUUCUUUCUCGAUAUCAUAUUAAUCUUU
- Kd: 8.05 nM

B30: Ie_S2_P5E.1_K5.1_C5.1_H5.1_[+4CTT]_A5.1_F5.1_T5.1 (ssRNA)
RNA: UUUGAUUAAUAUGAUAUCGUUCUUUCUUGUACUUUUAUUAUUCUUUCUCGAUAUCAUAUUAAUCUUU
- Kd: 1.36 nM

B31: Ie_S2_P5E.1_K5.1_C5.1_H5.1_A5.1_[+7CTT]_F5.1_T5.1 (ssRNA)
RNA: UUUGAUUAAUAUGAUAUCGUUCUUUCUUGUAUUACUUUUAUUCUUUCUCGAUAUCAUAUUAAUCUUU
- Kd: 25.2 nM

B32: Ie_S2_P5E.1_K5.1_C5.1_H5.1_A5.1_[+7CCT]_F5.1_T5.1 (ssRNA)
RNA: UUUGAUUAAUAUGAUAUCGUUCUUUCUUGUAUUACCUUUAUUCUUUCUCGAUAUCAUAUUAAUCUUU
- Kd: 31.6 nM

B33: Ie_S2_P5E.1_K5.1_C5.1_H5.1_A5.1_[+6TCT]_F5.1_T5.1 (ssRNA)
RNA: UUUGAUUAAUAUGAUAUCGUUCUUUCUUGUAUUUCUAUUAUUCUUUCUCGAUAUCAUAUUAAUCUUU
- Kd: 2.42 nM

B34: Ie_S2_P5E.1_K5.1_C5.1_H5.1_[+4TTC]_A5.1_F5.1_T5.1 (ssRNA)
RNA: UUUGAUUAAUAUGAUAUCGUUCUUUCUUGUAUUCUUAUUAUUCUUUCUCGAUAUCAUAUUAAUCUUU
- Kd: 2.96 nM

B35: Ib_S2_P3E.1_K3.1_C3.1_H3.1_[T1G]_[A4C]_A3.1_F3.1_T3.1 (ssRNA)
RNA: UUUGAUUAAUAUGAUAUCGUUCUUUCUGGUCUAUAUUCUUUCUCGAUAUCAUAUUAAUCUUU
- Kd: > 2300 nM

B36: Ib_S2_P3E.1_K3.1_C3.1_H3.1_[G2A]_[T3C]_A3.1_F3.1_T3.1 (ssRNA)
RNA: UUUGAUUAAUAUGAUAUCGUUCUUUCUUACAUAUAUUCUUUCUCGAUAUCAUAUUAAUCUUU
- Kd: > 2300 nM

B37: Ib_S2_P3E.1_K3.1_C3.1_H3.1_[G2T]_[T3A]_A3.1_F3.1_T3.1 (ssRNA)
RNA: UUUGAUUAAUAUGAUAUCGUUCUUUCUUUAAUAUAUUCUUUCUCGAUAUCAUAUUAAUCUUU
- Kd: 1460 nM

B38: Ib_S2_P3E.1_K3.1_C3.1_H3.1_[G2C]_[T3C]_A3.1_F3.1_T3.1 (ssRNA)
RNA: UUUGAUUAAUAUGAUAUCGUUCUUUCUUCCAUAUAUUCUUUCUCGAUAUCAUAUUAAUCUUU
- Kd: > 2300 nM

B39: Ie_S2_P5E.1_K5.1_C5.1_H5.1_A5.1_[+7CC]_F5.1_T5.1 (ssRNA)
RNA: UUUGAUUAAUAUGAUAUCGUUCUUUCUUGUAUUACCUUAUUCUUUCUCGAUAUCAUAUUAAUCUUU
- Kd: 58.9 nM

B40: Ie_S2_P5E.1_K5.1_C5.1_H5.1_A5.1_F5.1_[+9TT]_T5.1 (ssRNA)
RNA: UUUGAUUAAUAUGAUAUCGUUCUUUCUUGUAUUAUUUUAUUCUUUCUCGAUAUCAUAUUAAUCUUU
- Kd: 8.73 nM

B41: Ie_S2_P5E.1_K5.1_C5.1_H5.1_A5.1_[+7TC]_F5.1_T5.1 (ssRNA)
RNA: UUUGAUUAAUAUGAUAUCGUUCUUUCUUGUAUUAUCUUAUUCUUUCUCGAUAUCAUAUUAAUCUUU
- Kd: 11.8 nM
